Source: patent US5306619, “Screening assay for the detection of DNA-binding molecules” (Genelabs Technologies, Inc.)

How the values were obtained:
UL9 full length = UL9 full length (Herpes simplex virus 1, UniProt P10193 P10193:1-851); assay: EMSA; dissociation time at 4 C, competition with SEQ 16; settings: protein: extract; tags: baculovirus/Sf9 expressed, partially purified extract; label: 32P
[1] = biological target: UL9-COOH (C-terminal 317 aa of HSV UL9) (Herpes simplex virus 1, UniProt P10193 P10193:535-851); assay: EMSA; dissociation time at 4 C, competition with SEQ 16; 20 mM HEPES pH 7.2, 50 mM KCl, 1 mM DTT; settings: tags: GST fusion from pGEX-2T, thrombin cleaved; crude E. coli extracts also used; label: 32P
Chain of UL9-COOH (C-terminal 317 aa of HSV UL9) (P10193 535-851, one chain of several): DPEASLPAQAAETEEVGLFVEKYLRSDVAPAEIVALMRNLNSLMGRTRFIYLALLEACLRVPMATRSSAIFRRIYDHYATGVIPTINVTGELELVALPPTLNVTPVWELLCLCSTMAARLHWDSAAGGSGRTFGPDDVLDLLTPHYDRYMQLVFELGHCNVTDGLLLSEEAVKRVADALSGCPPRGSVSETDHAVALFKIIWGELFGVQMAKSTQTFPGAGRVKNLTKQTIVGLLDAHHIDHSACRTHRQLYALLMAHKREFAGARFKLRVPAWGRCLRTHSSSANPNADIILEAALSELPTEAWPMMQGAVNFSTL

Chain of UL9 full length (P10193 whole entry, the tested form may be a part, one chain of several): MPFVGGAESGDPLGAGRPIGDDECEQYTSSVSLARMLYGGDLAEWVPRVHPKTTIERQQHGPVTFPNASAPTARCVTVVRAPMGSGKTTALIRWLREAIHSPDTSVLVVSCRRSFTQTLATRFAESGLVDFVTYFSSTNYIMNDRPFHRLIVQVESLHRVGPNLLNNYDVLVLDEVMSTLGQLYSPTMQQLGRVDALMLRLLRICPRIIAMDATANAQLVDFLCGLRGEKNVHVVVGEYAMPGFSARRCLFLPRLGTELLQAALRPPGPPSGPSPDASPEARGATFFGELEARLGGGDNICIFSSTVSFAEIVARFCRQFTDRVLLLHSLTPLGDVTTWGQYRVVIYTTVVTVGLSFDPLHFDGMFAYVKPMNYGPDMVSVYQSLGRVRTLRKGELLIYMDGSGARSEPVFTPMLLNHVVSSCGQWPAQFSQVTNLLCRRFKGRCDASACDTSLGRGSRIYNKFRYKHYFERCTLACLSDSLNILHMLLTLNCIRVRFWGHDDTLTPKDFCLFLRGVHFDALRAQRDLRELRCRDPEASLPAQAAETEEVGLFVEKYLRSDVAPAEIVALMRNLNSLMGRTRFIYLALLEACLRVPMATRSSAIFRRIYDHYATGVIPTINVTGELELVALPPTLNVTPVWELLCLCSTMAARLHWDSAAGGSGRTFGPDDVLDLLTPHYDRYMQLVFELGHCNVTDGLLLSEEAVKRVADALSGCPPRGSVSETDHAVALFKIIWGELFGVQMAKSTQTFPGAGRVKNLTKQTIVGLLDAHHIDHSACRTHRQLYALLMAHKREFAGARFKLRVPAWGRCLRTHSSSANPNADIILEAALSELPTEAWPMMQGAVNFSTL

B1: FIG. 4 HSV oriS oligonucleotide (dsDNA)
DNA 1: AAGTGAGAATTCGAAGCGTTCGCACTTCGTCCCAAT
DNA 2: ATTGGGACGAAGTGCGAACGCTTCGAATTCTCACTT
B1 gave a koff (UL9 full length) of about 4 h and a koff [1] of about 4 h.
